From patent US9803013B2, “Biological materials and uses thereof” (BioInvent International AB, priority 2005, dated 2017)

How the values were obtained:
MDA MB 435 = experiment: IgG binding to tumour cell line, flow cytometry MFI; set-up: species or system human; settings: MDA MB 435, Melanoma
Text: The antigen distribution of human antibody targeted antigens, mainly for B11, on different carcinoma cell lines was investigated. Cells (MCF-7 and MDA MB 435S breast carcinoma, JAR and JEG-3 chorio-carcinoma, A549 lung carcinoma, TCC-SUP urinary bladder carcinoma, MDA MB 435 melanoma, HPAC, PANC-1 and BxPC-3 pancreatic carcinoma, PC-3 and DU145 prostate carcinoma, LS174 T, CaCo2, and Lovo colorectal carcinoma, and THP-1 monocytic leukaemia cells), were washed in PBS, and resuspended at 4×10^6 cells/ml in Complete Medium (200,000 cells/50 […] sample). […] Cells were incubated with either of the antibodies for 1 hour on ice, washed by resuspension in PBS/BSA 0.5%, centrifuged at 1200 rpm for 5 min, and complete aspiration of the supernatants was undertaken. Cells were incubated with PE-conjugated Goat F(ab′)2 anti-Human IgG (Caltag Laboratories, Cat no: H10104), diluted 1/50 in PBS/BSA 0.5%, for 30 min, on ice. Following resuspension of in 300 μl PBS/BSA 0.5%, cells were analysed for IgG binding using a FACScan instrument.

PC-3 cells = experiment: Apoptosis induction in carcinoma cells (cross-linked IgG, 16-24 hours, Annexin V/PI); format: cell-based, human; settings: PC-3, cross-linked IgG
Experimental: The prostate carcinoma cell line PC-3 was grown in Complete Growth Medium (RPMI 1640, supplemented with 10% FCS, 10 mM HEPES, and 2 mM L-Glutamine) to 80% confluency in a 6 well plate. The prostate carcinoma cell line DU145 was grown in MEM with Earl's salts, supplemented with 10% FCS, 1 mM sodium pyruvate, and 1 mM non-essential amino acids and the derivate of a melanoma cell line MDA MB 435 was grown in DMEM supplemented with 10% FCS.
For apoptosis assays cells were washed in PBS and serially diluted B11 IgG1 (or B1 IgG1, Trastuzumab or negative antibody control for controls) was added to individual wells and binding was allowed during a 1-2 h incubation at 4° C. The cells were washed and Complete Growth Medium was added, containing cross-linking antibody, Fab′2 Goat anti-Human Fab′2, at 10 μg/ml. Cells were incubated in a humidified atmosphere, with 5% CO2 at 37° C., for 16-24 hours. […] The percentage apoptotic cells was determined by the formula: % apoptotic cells=100−% AF488−AV/PI−/−.
Cells were seeded in 6 well plates with Complete Growth Medium three days before the onset of the experiment. […] Cells were washed in ice-cold PBS, subjected to Annexin V/propidium iodide staining, and analysed for viability/apoptosis as described in example 5 above.

U266 myeloma cells = experiment: NK-cell deficient NOD/Shi-scid/IL-2Rγ−/− mouse model; format: in vivo; settings: U266 grafted to NOD/Shi-scid/IL-2Rγ−/− mice
Experimental: (FIG. 20F) Animal survival following BI-505 or control antibody treatment in a disseminated NK-cell deficient NOD/Shi-scid/IL-2Rγ^−/− mouse model comprising i.v. grafted U266 myeloma cells. ***p<0.001.
Six-eight weeks-old female NOD/Shi-scid IL-2Rγ^−/− mice were obtained from Taconic, Denmark. Five million (5×10^6) RPMI-8226 or U266 tumor cells in 200 μL of RPMI 1640 were intravenously injected into the caudal vein (day 0). The tumor cell injection was performed 2 hr after whole body irradiation of mice (1.5 Gy, Cesium 137, IBL 637). At day 4, mice were randomized into 6 groups and treatment was initiated according to the schedule below.

B1: B11: fully human IgG1 antibody specific for ICAM-1; VH and VL sequences of FIG. 10 (SEQ ID NOs. 6 and 8) (antibody, listed as Homo sapiens, V domains shown)
VH: EVQLLESGGGLVQPGGSLRLSCAASGFTFSNAWMSWVRQAPGKGLEWVAFIWYDGSNKYYADSVKGRFTISRDNSKNTLYLQMNSLRAEDTAVYYCARYSGWYFDYWGQGTLVTVSS
VL: QSVLTQPPSASGTPGQRVTISCTGSSSNIGAGYDVHWYQQLPGTAPKLLIYDNNNRPSGVPDRFSGSKSGTSASLAISGLRSEDEADYYCQSYDSSLSAWLFGGGTKLTVLG
In the case of B1, the MFI (MDA MB 435) is reported as 4000, the “Apoptosis Induction” value (PC-3 cells) is reported as “induce apoptosis” and the “antitumor activity” value (U266 myeloma cells) is reported as “significant antitumor activity”.
